Assay results taken from patent publication US20210380714A1.
pKd: −log10 of the molar value.

Columns and labels:
[1] = biological target: recombinant human soluble MSLN (rHuMSLN sol.) (human) (UniProt Q13421); experiment: published value quoted in the Biacore column; the sheet does not name its source
[2] = biological target: native human MSLN expressed on the cell surface (N87 / NCI-N87 tumor cells) (human) (UniProt Q13421); experiment: KinExA, native hu MSLN on cells
[3] = biological target: recombinant human soluble MSLN (rHuMSLN sol.) (human) (UniProt Q13421); experiment: Biacore, soluble human MSLN

Chain of recombinant human soluble MSLN (rHuMSLN sol.) (human) (Q13421 296-606 limits assumed): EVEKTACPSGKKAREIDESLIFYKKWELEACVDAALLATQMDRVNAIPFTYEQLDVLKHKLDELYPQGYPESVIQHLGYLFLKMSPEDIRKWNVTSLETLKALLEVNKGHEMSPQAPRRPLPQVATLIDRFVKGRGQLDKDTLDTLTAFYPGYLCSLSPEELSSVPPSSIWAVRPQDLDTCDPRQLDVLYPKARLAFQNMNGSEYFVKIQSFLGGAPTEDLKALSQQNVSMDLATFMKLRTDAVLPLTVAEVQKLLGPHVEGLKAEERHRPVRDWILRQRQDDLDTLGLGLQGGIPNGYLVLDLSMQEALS
Chain of native human MSLN expressed on the cell surface (N87 / NCI-N87 tumor cells) (human) (Q13421 296-606 limits assumed): as above

MORAb-009 (antibody)
pKd [1]: 8.82
pKd [2]: 11.66
pKd [3]: 9.80
